Target: purified recombinant endophilin A1-SH3 (ITC and NMR) (UniProt O35179 291-352)
Assay: ITC

purified recombinant endophilin A1-SH3 (ITC and NMR), sequence (O35179 291-352): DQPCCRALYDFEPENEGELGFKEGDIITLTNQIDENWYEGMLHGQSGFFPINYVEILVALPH

Kd: ~30 µM
stoichiometry N: 1
B1: purified recombinant intersectin 1-SH3B (ITC and NMR) (domain or fragment)
chain: LQAQALYPWRAKKDNHLNFNKNDVITVLEQQDMWWFGEVQGQKGWFPKSYVKLIS
